# Experiment: soluble on expression in E. coli; label from the status in PepcDB or PDB records
row,Sequence,soluble on expression in E. coli
1,MSRSSVTGKEFVIRYVFNDVSNMNENDMRISTVEEYFNVPWIFQIQRNNGNLGIYLRCRKLKGQEMWSMFTELELKLISVYSDTRDQKCKTDMCFGHDSGKFYSSYGWSEFISWNELETSFMDAGSITVEARVIINKSIGFYTPKLMNFDEKKKEYSDIVVLVDGQRFYLLKKFLAFHSTFFESLFLGGFYEAKLTEVPLYDIDVDDFQKFLEVLYGFPVINDNTVEGILLLADMYQTPLVSELCEDFLIQTTGKTYKKKLQMAIKFNLENLKQFCISMIKSPFDLRSMIPSDISSIDHSTLAALFTKSLTLMK,not soluble
2,MGSDKIHHHHHHMAATPRKLSSKEVAALVGNLMEASESTSLENGLEVRPYAFGENELNQLGDYHALRIINERFCRTARDVFLPMLRLQPRISSFPPEVRSFDDYRSSQDNFVSITASRIEELRGNQMIVIPPPFISLLTDSYYGGQIRHVPTTRTEFTATEERVIELVTDRLNVALQVAWRDLMALTFTVVSREESMQFASFVDGEDMVVNCSFMVQLPNTEPASFDILYPLQTLKPISSQLRSRMQSDFVDDDRSWREKLERAILSIPLTLSARLCEPEVPLRQLMQMQPGDVLPVHLTEAVSLLVEGQPIFEAAPGERGGQAALNLTRRHVRS,not soluble
3,MSLGTVHARSLDPLPMQGPELGVQADDMDLGEPEREEKQEVLENKDVVVQHVHIDGLGRTKEDILTYEIADVFHAKNLIDVMKKSHEARQKLLRLGIFRHVEVVIDTAEGADALPNGLDVTFEVRELRRMTGSYNTMVGNNEGSMVLGIKLPNVLGRAEKLTFQFSYGTKETSYGLSFFKPQPGHFERNFSLNLYKVTGQFPWSSLRETDRGVSAEISFPIWRTSHTLKWEGVWRELGCLARTASFAVREESGHSLKSSLAHAMVIDTRNSTILPRKGALLKINQELAGYTGGDVSFLKEDFEIQLNKTLFWDSVLSTSLWGGMLLPLGEKASSIADRFYLGGPTSVRGFSMYSIGPQSEGDYLGGEAYWAGGVHLYTPLPFRPGRGGFGDLFRTHFFLNAGNLCNLNYGEGPRAHLSKLAECIRWSYGAGIVLRLGNIARLELNYCIPMGVQSGDRICDGVQFGAGIRFLEGHHHHHH,not soluble
4,MSLSHKSKKLLLVDDDQTVLKLMTEVLTDFGHCVTSVPSARHALNHFTSAGQAFDLLITDICMPGMNGVELIKAVRAHNGTLPIIAISGFSEPEDQNEIAHYDARMLTKPVDFQTLKQTIDALEGHHHHHH,not soluble
5,MGSDKIHHHHHHMNAPLLLRNVGRGESTESGAVPPAVLPPVQPSPTTLQAPDHAARRRIAVFRALQLGDMLCAVPALRALREGEPDAHITLIGLPWVRDFASRFGSLIDDVMVFPGAPGFPERPYDAAALAAFHAEARARRFDLAIQLHGSGTLSNDVVRQLGARTIAGFCPTSAEAALANEHERLLPWPGGNEIERLLGLMRALGYPVVDAHLAFPLRPQDHAGWQRLAELHGLVGGEYICVHPGARMLSRRWPVERFADVALRLRKRWRIVVTGAPDEIMLTHRLCELIGGDVVNLTAATPLGELAALIAHARLLLCNDTGPSHIAAALDTPSVVVSCGGDSDRWAPLDATLHHVLASYPPCRPCNWQKCPIRHECATAITVDAVEAEALSLASRGHDHA,not soluble
6,MGSDKIHHHHHHMNTYHPFSLTTPSTLMIQDWAQTNQNNKEVIAGFTTKNGGVSQKPFESLNTGLHVHDKDADVVKNREYIADMFNTDLQSWVFADQTHDNRVQKVTQRDRGKGAREYHTALKATDGIYTNEKNVFLALCFADCVPLFFYDPVKSLVGVAHAGWKGTVKQIGREMVKQWTEKEGSNPSDIYAVIGPSISGACYTVDDRVMDAVRALPVSADLAANQTAKAQYQLDLKELNRLILMDSGLASEQISVSGLCTESEPSLFYSHRRDQGKTGRMMSFIGMKEA,not soluble
7,MSLFMNPHRRFWMVTGWTKSAIWVARWLLGIRWQCQGWEHIEEAVATNKQVVLLSKHQSAWETIAFVAIMPRPLCYVFKRELLYVPFFGWALGMLKMVHINRKDGTNAFASVARQGKERMADGSWIIMFPEGTRTPVGAPNPRYKSGGARLAVDTGAWVIPIAHNSGRLWPRNAFLKYPGLITLSIGPAISSAGKSGDQLNREVQAWIEAEMRRIDADSYEGHHHHHH,not soluble
8,MLSALRTAGAVGTRRLASTQAIASNSEAPKGIATTGTPFLNPSSKAEYALARLDDVLNLAQRGSIWPLTFGLACCAVEMMHFAAPRYDMDRYGVVFRASPRQADLIFVAGTVTNKMAPALRRIYDQMPEAKWVISMGSCANGGGYYHYAYSVLRGCDRVIPVDIYVPGCPPTAEALLYGVLQLQKKIKRKREAQLWYRR,not soluble
9,MRGCNKETGEFLGPSRSQQRRTALEVLVLSEKLAALTPAQLAKLPIPERLLPHITETKRITSHIARKRQLAFLAKQMRREDDTTLEAIREKLNASGIQAQREVATLHRTEQWRKRLLEEGDSALTELLNQYPQADCGKLRQLLRNSKTEQARNKAPQAFRELYQVLHGLIITQ,not soluble
10,MSFDSLGLSPDILRAVAEQGYREPTPIQQQAIPAVLEGRDLMASAQTGTGKTAGFTLPLLQHLITRQPHAKGRRPVRALILTPTRELAAQIGENVRDYSKYLNIRSLVVFGGVSINPQMMKLRGGVDVLVATPGRLLDLEHQNAVKLDQVEILVLDEADRMLDMGFIHDIRRVLTKLPAKRQNLLFSATFSDDIKALAEKLLHNPLEIEVARRNTASDQVTQHVHFVDKKRKRELLSHMIGKGNWQQVLVFTRTKHGANHLAEQLNKDGIRSAAIHGNKSQGARTRALADFKSGDIRVLVATDIAARGLDIEELPHVVNYELPNVPEDYVHRIGRTGRAAATGEALSLVCVDEHKLLRDIEKLLKKEIPRIAIPGYEPDPSIKAEPIQNGRQQRGGGGRGQGGGRGQQQPRRGEGGAKSASAKPAEKPSRRLGDAKPAGEQQRRRRPRKPAAAQ,soluble
11,MSTTFAARLNRLFDTVYPPGRGPHTSAEVIAALKAEGITMSAPYLSQLRSGNRTNPSGATMAALANFFRIKAAYFTDDEYYEKLDKELQWLCTMRDDGVRRIAQRAHGLPSAAQQKVLDRIDELRRAEGIDA,soluble
12,MVEKMNEEVMDSKELQVGDVVTGSVTKVEEKQVLVNVGYKTDGVIPISELANVHIEKASDVVELDQTLELKIIKLEEDDLVLSKRAVDAEKAWVELQEKFTSGHVFDVIVKDIVNGGLVVDLGVRGFIPASLVEVHYVEDFTDYKGKTLAVKIVELDREKNRVILSHKAVVELELDSKKKEAISSLKEGDVVEGTVQRLTDFGAFVNVGGVDGLVHISQISHERVEQPSEVLEQGQKVKVKVLSVDADTQRISLSIKAAQPGPWENVAGEIKAGDIREGVVKRLVTFGAFVEILPGVEGLVHVSQIANRHVKNPNEVLEMGQEVKVKVLEVHVAEKRISLSIKEALEENNVTEDYSQYEPNADSATFQLSDIIGEQLKKLKKLEHHHHHH,soluble
13,MSRVSTAPSGKPTAAHALLSRLRDHGVGKVFGVVGREAASILFDEVEGIDFVLTRHEFTAGVAADVLARITGRPQACWATLGPGMTNLSTGIATSVLDRSPVIALAAQSESHDIFPNDTHQCLDSVAIVAPMSKYAVELQRPHEITDLVDSAVNAAMTEPVGPSFISLPVDLLGSSEGIDTTVPNPPANTPAKPVGVVADGWQKAADQAAALLAEAKHPVLVVGAAAIRSGAVPAIRALAERLNIPVITTYIAKGVLPVGHELNYGAVTGYMDGILNFPALQTMFAPVDLVLTVGYDYAEDLRPSMWQKGIEKKTVRISPTVNPIPRVYRPDVDVVTDVLAFVEHFETATASFGAKQRHDIEPLRARIAEFLADPETYEDGMRVHQVIDSMNTVMEEAAEPGEGTIVSDIGFFRHYGVLFARADQPFGFLTSAGCSSFGYGIPAAIGAQMARPDQPTFLIAGDGGFHSNSSDLETIARLNLPIVTVVVNNDTNGLIELYQNIGHHRSHDPAVKFGGVDFVALAEANGVDATRATNREELLAALRKGAELGRPFLIEVPVNYDFQPGGFGALSI,soluble

# Source: the DeepSol protein solubility set
